T1: full-length human TBK1 (human, UniProt Q9UHD2 1-729)
T1 sequence (looked up): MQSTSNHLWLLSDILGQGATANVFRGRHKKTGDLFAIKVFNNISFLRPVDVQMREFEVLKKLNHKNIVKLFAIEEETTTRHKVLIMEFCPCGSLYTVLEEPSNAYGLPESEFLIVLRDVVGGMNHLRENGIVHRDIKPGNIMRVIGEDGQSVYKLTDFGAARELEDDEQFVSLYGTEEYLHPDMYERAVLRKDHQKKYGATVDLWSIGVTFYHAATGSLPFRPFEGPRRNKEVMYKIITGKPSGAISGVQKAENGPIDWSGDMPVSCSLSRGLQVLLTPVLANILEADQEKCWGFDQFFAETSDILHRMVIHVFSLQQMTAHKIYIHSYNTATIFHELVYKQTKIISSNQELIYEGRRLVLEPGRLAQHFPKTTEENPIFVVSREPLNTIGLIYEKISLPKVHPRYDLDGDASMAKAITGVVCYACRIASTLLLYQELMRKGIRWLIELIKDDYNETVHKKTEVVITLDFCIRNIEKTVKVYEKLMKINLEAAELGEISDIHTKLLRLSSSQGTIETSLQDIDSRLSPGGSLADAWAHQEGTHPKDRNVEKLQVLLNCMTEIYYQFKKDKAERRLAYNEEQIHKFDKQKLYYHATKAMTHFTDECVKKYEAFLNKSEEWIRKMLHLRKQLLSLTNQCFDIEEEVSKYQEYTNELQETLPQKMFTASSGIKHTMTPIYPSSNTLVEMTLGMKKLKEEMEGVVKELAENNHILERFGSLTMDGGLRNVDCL

B1: Biotin-labeled SUMO-fusion mouse TRIM14 (residues 247-440) (domain or fragment, UniProt Q8BVW3 247-440, looked up)
chain: ALLKTSPSPERALFLKYARTPTLDPDTMHARLRLSPDGLTVRCSLLGRLGPRPAPRFDALRQVLGRDGFAAGRHYWEVDVQEAGVGWWVGAAYPSLRRRGASAAARLGCNRESWCVKRYDLEYWAFHDGQRSRLRPRRDPHRLGVFLDYEAGILAFYDVAGGMSHLHTFHAAFQEPLYPALRLWEGPISIPRLP
modifications: biotin (Avi tag, labelled by BirA)

Assays:
Assay in all cases: SPR
[1] = biological target: Biotin-labeled SUMO-fusion mouse TRIM14 (residues 247-440) (mouse) (UniProt Q8BVW3)
full-length human TBK1 = biological target: T1, full-length human TBK1
[2] = biological target: human cGAS (residues 157-522) (human, UniProt Q8N884 157-522)
Chain of human cGAS (residues 157-522) (Q8N884 157-522): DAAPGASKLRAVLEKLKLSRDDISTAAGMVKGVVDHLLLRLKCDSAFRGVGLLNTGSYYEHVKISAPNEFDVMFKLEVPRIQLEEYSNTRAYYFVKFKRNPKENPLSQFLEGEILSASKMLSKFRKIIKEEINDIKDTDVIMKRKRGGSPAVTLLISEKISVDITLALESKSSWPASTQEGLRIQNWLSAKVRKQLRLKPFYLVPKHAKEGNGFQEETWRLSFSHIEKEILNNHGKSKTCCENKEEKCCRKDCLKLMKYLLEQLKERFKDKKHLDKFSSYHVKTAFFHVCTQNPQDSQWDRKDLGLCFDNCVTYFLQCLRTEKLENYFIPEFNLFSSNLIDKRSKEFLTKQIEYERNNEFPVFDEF

Molecule	Kd [1]	Kd (full-length human TBK1)	Kd [2]
human TBK1 (residues 1 to 657) (from UniProt Q9UHD2 1-657) (domain or fragment)	42.6 µM	–	–
mouse TBK1 (residues 1 to 657) (from UniProt Q9WUN2 1-657) (domain or fragment)	24.3 µM	–	–
B1	–	11 µM	25.8 µM

— paper PMC7313415 (Journal of immunology (Baltimore, Md. : 1950), 2020)
